Measured values taken from patent US20240254250A1 (HARPOON THERAPEUTICS, published 2024).

Target: 253BH10 trispecific protein
Test: affinity measurement, method not stated

Sequence of 253BH10 trispecific protein (chain, as listed by the source limits assumed, form in doubt): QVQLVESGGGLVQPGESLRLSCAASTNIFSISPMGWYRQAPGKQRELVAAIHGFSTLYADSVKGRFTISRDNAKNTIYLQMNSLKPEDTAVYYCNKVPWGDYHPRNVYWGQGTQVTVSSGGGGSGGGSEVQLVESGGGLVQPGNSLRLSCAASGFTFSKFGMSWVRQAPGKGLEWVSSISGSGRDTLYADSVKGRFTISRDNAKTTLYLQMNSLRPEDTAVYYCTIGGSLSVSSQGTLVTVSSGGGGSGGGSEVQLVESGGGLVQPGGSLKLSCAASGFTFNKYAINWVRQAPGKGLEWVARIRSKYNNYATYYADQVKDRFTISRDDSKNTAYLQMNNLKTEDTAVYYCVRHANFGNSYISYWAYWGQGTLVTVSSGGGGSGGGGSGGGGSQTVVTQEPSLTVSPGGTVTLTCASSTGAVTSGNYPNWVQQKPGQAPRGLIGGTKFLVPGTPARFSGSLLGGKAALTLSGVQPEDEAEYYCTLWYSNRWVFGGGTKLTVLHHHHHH

Kd: 27.7 nM
B1: human BCMA protein (receptor)
chain: MLQMAGQCSQNEYFDSLLHACIPCQLRCSSNTPPLTCQRYCNASVTNSVKGTNA
